Measured values: US20030162205, “Novel transcription factor having zinc finger domain” (published 2003)

B1: Waf-1 promoter GC-box probe (dsDNA)
DNA 1: TCGAAAGGAGGCGGGACCCGAGCT
DNA 2: AGCTCGGGTCCCGCCTCCTTTCGA
B2: mutant GC-box (dsDNA)
DNA 1: TCGAAAGGAGTTTTGACCCGGAGCT
DNA 2: AGCTCCGGGTCAAAACTCCTTTCGA

Key:
[1] = biological target: T1, GST-285F (m285 full length) (Mus musculus, UniProt Q9JHX2 SEQ:1-398); assay: EMSA; 20 mM HEPES, 40 mM KCl, 6 mM MgCl2, salmon sperm DNA; competed by unlabeled GC-box; settings: tags: GST N-terminal (pGEX 4T-3); label: 33P
Excerpt: (§1) Sp1 is known to bind to a GC-box through its three zinc finger domains. The m285 cloned in the present invention has three zinc finger domains that share a very high homology with the Sp family, and therefore the protein was expected to bind to a GC-box. Thus, 285F, 285N, and 285C were expressed as GST fusion proteins in E. coli to examine their binding to a GC-box. GST fusion proteins purified with glutathione Sepharose, and as the GC box a DNA probe having the nucleotide sequence in the Waf-1 promoter region which sequence binds to Sp1 were used. DNA probe was prepared by labeling ds-(5′-TCGAAAGGAGGCGGGACCCGAGCT-3′/SEQ ID NO: 25) containing a GC-box sequence with 33-P. The DNA probe was reacted with GST-285F, GST-285N, and GST-285C described above in EMSA buffer (20 mM HEPES, 40 mM KCl, 6 MM MgCl₂, 1 mM EGTA, 1 mM DTT, 0.1% NP-40, 10% Glycerol, 0.15% BSA, 25 ng/μl sonicated salmon sperm DNA) for 20 minutes. To examine the presence of competitive inhibition, either an unlabeled GC-box DNA probe or unlabeled mutant GC-box DNA probe (ds-(5′-TCGAAAGGAGTTTTGACCCGGAGCT-3′/SEQ ID NO: 26)) was further added to a similar reaction system. Recombinant Sp1 was used as a positive control. The reactants were electrophoresed on 5% acrylamide gel and were exposed to imaging plates. Analyses were performed using BAS2000 imaging analyzer. […]

[2] = biological target: GST-285N (m285 N-terminal) (Mus musculus, UniProt Q9JHX2 SEQ:1-278); assay: EMSA; no complex; lacks zinc fingers; settings: tags: GST N-terminal (pGEX 4T-3); label: 33P
Excerpt: as §1

Sp1 [3] = biological target: T2, Sp1 (UniProt P08047 P08047:2-785); assay: EMSA; positive control; competed by unlabeled GC-box; settings: label: 33P
Excerpt: as §1

[4] = biological target: T3, GST-285C (m285 C-terminal, three zinc fingers) (Mus musculus, UniProt Q9JHX2 SEQ:271-398); assay: EMSA; same buffer; competed by unlabeled GC-box; settings: tags: GST N-terminal (pGEX 4T-3); label: 33P
Excerpt: as §1

[5] = biological target: T3, GST-285C (m285 C-terminal, three zinc …); assay: competition; unlabeled mutant competitor had no effect on complex with GC-box; settings: tags: GST N-terminal (pGEX 4T-3)
Excerpt: (§2) Sp1 is known to bind to a GC-box through its three zinc finger domains. The m285 cloned in the present invention has three zinc finger domains that share a very high homology with the Sp family, and therefore the protein was expected to bind to a GC-box. Thus, 285F, 285N, and 285C were expressed as GST fusion proteins in E. coli to examine their binding to a GC-box. GST fusion proteins purified with glutathione Sepharose, and as the GC box a DNA probe having the nucleotide sequence in the Waf-1 promoter region which sequence binds to Sp1 were used. DNA probe was prepared by labeling ds-(5′-TCGAAAGGAGGCGGGACCCGAGCT-3′/SEQ ID NO: 25) containing a GC-box sequence with 33-P. The DNA probe was reacted with GST-285F, GST-285N, and GST-285C described above in EMSA buffer (20 mM HEPES, 40 mM KCl, 6 MM MgCl₂, 1 mM EGTA, 1 mM DTT, 0.1% NP-40, 10% Glycerol, 0.15% BSA, 25 ng/μl sonicated salmon sperm DNA) for 20 minutes. To examine the presence of competitive inhibition, either an unlabeled GC-box DNA probe or unlabeled mutant GC-box DNA probe (ds-(5′-TCGAAAGGAGTTTTGACCCGGAGCT-3′/SEQ ID NO: 26)) was further added to a similar reaction system. Recombinant Sp1 was used as a positive control. The reactants were electrophoresed on 5% acrylamide gel and were exposed to imaging plates. Analyses were performed using BAS2000 imaging analyzer.
(§3) As a result of gel shift assay, bands that were considered to correspond to DNA-protein complex were observed when GST-285F, GST-285C, or recombinant Sp1 were reacted with the 33-P labeled GC-box DNA probe (FIG. 9; lanes 1, 4, and 9). No complex b and could be observed for GST-285N reacted with the GC-box DNA probe (FIG. 9; lane 7). The addition of unlabeled GC-box DNA probe vanished or decreased the complex bands of GST-285F, GST-285C, or recombinant Sp1, and the GC-box DNA probe (FIG. 9; lanes 2, 5, and 10). Further, the addition of unlabeled mutant GC-box DNA probe to a similar reaction system had no effect on the complex bands of GST-285F, GST-285C, or recombinant Sp1, and the GC-box DNA probe (FIG. 9; lanes 3, 6, and 11).

[6] = biological target: T1, GST-285F (m285 full length); assay: as above; settings: tags: GST N-terminal (pGEX 4T-3)
Excerpt: as §2, §3

Sp1 [7] = biological target: T2, Sp1; assay: as above
Excerpt: as §2, §3

T3 sequence (Q9JHX2 271-398): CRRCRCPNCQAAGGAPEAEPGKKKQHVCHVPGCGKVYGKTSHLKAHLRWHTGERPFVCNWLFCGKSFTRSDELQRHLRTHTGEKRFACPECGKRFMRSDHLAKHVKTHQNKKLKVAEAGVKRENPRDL
T2 sequence (P08047 2-785, one chain of several): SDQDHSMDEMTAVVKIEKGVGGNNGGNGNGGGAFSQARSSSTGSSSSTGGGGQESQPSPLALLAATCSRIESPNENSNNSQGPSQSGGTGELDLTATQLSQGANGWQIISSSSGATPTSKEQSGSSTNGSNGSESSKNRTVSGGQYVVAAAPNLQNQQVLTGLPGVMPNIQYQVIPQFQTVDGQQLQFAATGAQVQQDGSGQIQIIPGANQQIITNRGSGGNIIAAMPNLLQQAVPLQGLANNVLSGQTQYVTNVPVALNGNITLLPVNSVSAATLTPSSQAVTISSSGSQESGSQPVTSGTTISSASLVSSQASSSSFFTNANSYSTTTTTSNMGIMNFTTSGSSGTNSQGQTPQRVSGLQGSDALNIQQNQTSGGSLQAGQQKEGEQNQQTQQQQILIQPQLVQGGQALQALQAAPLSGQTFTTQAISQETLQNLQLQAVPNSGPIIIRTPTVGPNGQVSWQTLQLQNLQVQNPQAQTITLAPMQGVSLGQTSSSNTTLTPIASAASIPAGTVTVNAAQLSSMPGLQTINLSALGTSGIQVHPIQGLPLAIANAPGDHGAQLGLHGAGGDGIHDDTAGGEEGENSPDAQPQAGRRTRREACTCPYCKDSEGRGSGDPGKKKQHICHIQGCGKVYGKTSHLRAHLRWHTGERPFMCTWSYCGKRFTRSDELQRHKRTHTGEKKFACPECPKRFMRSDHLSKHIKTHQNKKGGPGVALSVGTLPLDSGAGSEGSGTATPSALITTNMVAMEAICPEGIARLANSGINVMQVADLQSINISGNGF
T1 sequence (Q9JHX2 whole entry, the tested form may be a part): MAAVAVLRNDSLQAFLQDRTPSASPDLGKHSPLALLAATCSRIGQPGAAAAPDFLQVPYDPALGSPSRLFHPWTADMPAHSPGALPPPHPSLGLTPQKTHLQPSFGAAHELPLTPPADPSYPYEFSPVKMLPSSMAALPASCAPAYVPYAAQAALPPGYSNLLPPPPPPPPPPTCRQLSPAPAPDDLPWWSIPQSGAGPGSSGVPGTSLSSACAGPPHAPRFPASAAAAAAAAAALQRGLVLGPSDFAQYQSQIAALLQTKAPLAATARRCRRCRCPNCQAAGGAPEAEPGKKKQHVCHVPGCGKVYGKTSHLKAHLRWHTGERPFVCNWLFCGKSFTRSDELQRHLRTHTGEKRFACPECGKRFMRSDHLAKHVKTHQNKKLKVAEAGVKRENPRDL
GST-285N (m285 N-terminal), sequence (Q9JHX2 1-278): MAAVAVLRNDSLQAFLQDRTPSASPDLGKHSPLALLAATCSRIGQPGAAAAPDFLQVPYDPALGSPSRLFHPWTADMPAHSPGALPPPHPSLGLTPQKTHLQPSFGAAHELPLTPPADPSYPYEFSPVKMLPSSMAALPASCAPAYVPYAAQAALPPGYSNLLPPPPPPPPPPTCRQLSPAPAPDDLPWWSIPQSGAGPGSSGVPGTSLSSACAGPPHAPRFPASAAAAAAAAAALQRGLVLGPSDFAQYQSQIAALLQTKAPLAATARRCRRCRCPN

Binder | binding result [1] | binding result [2] | binding result (Sp1 [3]) | binding result [4] | binding result [5] | binding result [6] | binding result (Sp1 [7])
B1 | binds | no binding | binds | binds |  |  | 
B2 |  |  |  |  | no binding | no binding | no binding
